Test results as given in publication PMC5667739 (PLoS Pathogens, 2017).

Legend:
Conditions in all cases: both partners purified
[1] = target: T1, GII.10 P domain (Vietnam026) (norovirus GII.10 (Vietnam026)); test: ITC
T1 construct: source: E. coli, purified

[2] = target: T1, GII.10 P domain (Vietnam026); test: ITC; remark: listed apart in the source
[3] = target: T1, GII.10 P domain (Vietnam026); test: ELISA

| Binder | stoichiometry N [1] | Kd [2] [nM] | dH [2] [kcal/mol] | lowest Nanobody concentration that detected the antigen (direct ELISA) [3] [ng/mL] |
| --- | --- | --- | --- | --- |
| Nano-32 (VHH) VHH: QVQLQESGGGLVQPGGSLRLSCAASGFTLGYYPIGWFRQAPGKGLEGVSCISGSGGSANYAASVKGRFTISRDNAKNTVYLQMNSLKPEDTAIYYCAADLSSLTTVQAMCVIPRPGFSAKAYDYWGLGTQVTVSS | 1 Nanobody per P domain monomer | 60 | 5 | – |
| Nano-14 (VHH, also called N14; source: E. coli WK6 (pHEN6C vector), purified) VHH: QVQLQESGGGLVQSGGSLRLSCAASRNINSMHVVGWYRQAPGNQRELVASITDDGSTDYVDSVKGRFTISRDIAENTVYLQMNSLNPEDTAVYYCKGTIVVFTTPMHYWGKGTQVTVSS | 0.5 Nanobody per P domain monomer | 10.4 | -22 | 20 |
| Nano-27 (VHH) VHH: QVQLQESGGGLVQPGGSLRLSCAASGTIFSRNIMGWYRQAPGKERELVASIYSDRSTWYAESVEGRFTISRDNVKNTLYLQMNSLKPEDTAMYYCRDRTLGSWGQGTQVTVSS | 1 Nanobody per P domain monomer | 9.5 | -8.1 | – |
| Nano-4 (VHH) VHH: QVQLQESGGGLVQPGGSLRLFCAASGFTFSSYAMRWYRQAPGKERELVAAITSAGGSTHYADSVKERFTISRDNAKNTMYLQMNSLKPEDTAVYYCNARRDYGDSWFTAGGGYWGQGTQVTVSS | 1 Nanobody per P domain monomer | 35 | -12 | 20 |
| Nano-42 (VHH) VHH: QVQLQESGGGLVQPGGSLRLSCAASGSVSRTYVMGWYRQTPGNQRELVATITSVGSTNYADSLKGRFTISRENAENTVYLQMNSLKPEDTAIYYCKYIRYSPIHAPLDYWGQGTQVTVSS | 1 Nanobody per P domain monomer | 0.809 | -9.84 | 20 |
| Nano-26 (VHH, also called N26; source: E. coli WK6 (pHEN6C vector), purified) VHH: QVQLQESGGGLVQPGGSLRLSCTAPRIIFFMYDVGWYRQAPEKQRELVAQINSDVSTKYADSVKGRFTISRDNAKRTVYLQMNDLKPEDAAVYYCNVRRASADYWGQGTQVTVSS | 1 Nanobody per P domain monomer | 3.2 | -10 | 20 |
